From paper PMC2877716, “Genome-Wide Identification of Calcium-Response Factor (CaRF) Binding Sites Predicts a Role in Regulation of Neuronal Signaling Pathways” come the findings set out here.

Data set [1] deals with T1, recombinant CaRF (Figs 5 and 6) (UniProt Q8VHI4 1-689).
T1 sequence: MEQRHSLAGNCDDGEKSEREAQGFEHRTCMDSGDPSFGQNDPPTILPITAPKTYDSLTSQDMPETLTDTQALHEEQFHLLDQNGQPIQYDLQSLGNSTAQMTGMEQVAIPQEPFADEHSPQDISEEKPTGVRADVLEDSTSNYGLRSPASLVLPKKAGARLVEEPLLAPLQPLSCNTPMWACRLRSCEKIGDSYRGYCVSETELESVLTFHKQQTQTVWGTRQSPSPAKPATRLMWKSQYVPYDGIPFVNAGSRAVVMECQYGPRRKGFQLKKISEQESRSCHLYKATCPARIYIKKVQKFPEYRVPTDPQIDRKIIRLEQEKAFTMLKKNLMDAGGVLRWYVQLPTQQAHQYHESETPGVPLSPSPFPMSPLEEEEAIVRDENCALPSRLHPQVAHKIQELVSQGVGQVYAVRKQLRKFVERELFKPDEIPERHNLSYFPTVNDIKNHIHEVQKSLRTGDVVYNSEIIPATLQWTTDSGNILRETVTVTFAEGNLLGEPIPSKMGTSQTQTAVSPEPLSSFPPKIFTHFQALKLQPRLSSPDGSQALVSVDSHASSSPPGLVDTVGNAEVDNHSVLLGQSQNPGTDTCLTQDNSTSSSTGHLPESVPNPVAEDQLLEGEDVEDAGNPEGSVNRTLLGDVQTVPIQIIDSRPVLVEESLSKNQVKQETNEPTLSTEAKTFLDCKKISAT
Description: competition; camCaRE probe, 50-100-fold excess; EMSA: 2 uL TNT or purified CaRF with 50 fmol 32P probe, 6% non-denaturing gel; competitors 50-150-fold excess, 30 min pre-incubation; buffer, pH and temperature not stated (cited ref 14). To be noted: protein: recombinant; blunt. (In EMSA bound probe runs differently from free probe, usually more slowly.)

Data set [2] concerns the target T2, CaRF (E. coli) (Mus musculus (Methods); human per Fig 2 …, UniProt Q8VHI4 1-689).
T2 sequence: T1 sequence
Description: competition; CaRE1 probe, 50-fold excess; EMSA: 2 uL TNT or purified CaRF with 50 fmol 32P probe, 6% non-denaturing gel; competitors 50-150-fold excess, 30 min pre-incubation; buffer, pH and temperature not stated (cited ref 14). The settings on record: protein: recombinant; blunt.

The target in data set [3] is T3, CaRF (TNT) (Homo sapiens, UniProt Q8N187 1-725).
T3 sequence: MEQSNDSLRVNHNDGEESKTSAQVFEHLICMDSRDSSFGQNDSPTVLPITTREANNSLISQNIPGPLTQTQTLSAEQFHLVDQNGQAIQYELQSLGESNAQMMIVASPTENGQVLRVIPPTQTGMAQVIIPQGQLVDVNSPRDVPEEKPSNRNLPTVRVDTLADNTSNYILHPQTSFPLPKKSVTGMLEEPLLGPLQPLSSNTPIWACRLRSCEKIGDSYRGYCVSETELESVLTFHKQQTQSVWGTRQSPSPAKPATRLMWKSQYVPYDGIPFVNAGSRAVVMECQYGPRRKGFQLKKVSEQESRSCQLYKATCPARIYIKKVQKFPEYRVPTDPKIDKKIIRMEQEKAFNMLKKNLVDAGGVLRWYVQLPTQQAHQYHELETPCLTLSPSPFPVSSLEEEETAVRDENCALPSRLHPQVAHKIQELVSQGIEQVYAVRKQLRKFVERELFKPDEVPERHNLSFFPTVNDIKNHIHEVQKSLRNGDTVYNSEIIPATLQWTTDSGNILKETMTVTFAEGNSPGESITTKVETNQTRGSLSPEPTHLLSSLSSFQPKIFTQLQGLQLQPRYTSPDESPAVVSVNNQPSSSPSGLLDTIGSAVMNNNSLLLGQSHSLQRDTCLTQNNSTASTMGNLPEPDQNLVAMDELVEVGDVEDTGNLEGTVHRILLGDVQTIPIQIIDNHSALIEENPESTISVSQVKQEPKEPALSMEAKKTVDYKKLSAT
Described as above. To be noted: protein: ivt; tags: N-terminal FLAG (DYKDDDDK); blunt.

In data set [4] the target is T1, recombinant CaRF (Figs 5 and 6). Description: EMSA; EMSA: 2 uL TNT or purified CaRF with 50 fmol 32P probe, 6% non-denaturing gel; competitors 50-150-fold excess, 30 min pre-incubation; buffer, pH and temperature not stated (cited ref 14). The settings on record: protein: recombinant; label: 32P when probe; blunt.
Data set [5] deals with T2, CaRF (E. coli). The description is as above. To be noted: protein: recombinant; label: 32P when probe; blunt.
Data set [6] concerns the target T3, CaRF (TNT). The description is as above. The settings on record: protein: ivt; tags: N-terminal FLAG (DYKDDDDK); label: 32P when probe; blunt.
The target in data set [7] is T1, recombinant CaRF (Figs 5 and 6). Description: competition; cCaRE probe, 100-fold excess; higher affinity than CaRF1; EMSA: 2 uL TNT or purified CaRF with 50 fmol 32P probe, 6% non-denaturing gel; competitors 50-150-fold excess, 30 min pre-incubation; buffer, pH and temperature not stated (cited ref 14). The settings on record: protein: recombinant; blunt.

B1: mCaRE1 (mCaRE) (dsDNA)
DNA 1: GAGTGTCTTCCGCCAGGCAGAGGAGG
DNA 2: CCTCCTCTGCCTGGCGGAAGACACTC
As for B1, the binding result (in data set [1]; with CaRF (E. coli) [2]; with CaRF (TNT) [3]) was “no binding” each time.

B2: camCaRE (dsDNA)
DNA 1: TCAAAGCGAGGCAGA
DNA 2: TCTGCCTCGCTTTGA
Regarding B2, in data set [4], the binding result is listed as “binds”.

B3: CaRE1 (dsDNA)
DNA 1: GAGTGTCTATTTCGAGGCAGAGGAGG
DNA 2: CCTCCTCTGCCTCGAAATAGACACTC
Consider B3, for which the binding result in the data set with CaRF (E. coli) [5] and with CaRF (TNT) [6] was “binds” each time.

B4: CaRF2 (dsDNA)
DNA 1: TGAGTAGTCTCGTTTTGAATTTTCTCC
DNA 2: GGAGAAAATTCAAAACGAGACTACTCA
As for B4, the binding result in data set [7] is on record as “binds”.
